{
  "source": "patent US11421026B2",
  "about": "“Antibodies that bind human cannabinoid 1 (CB1) receptor” (BIRD ROCK BIO, Inc., priority 2015, dated 2022)",
  "key": {"[1]": {"molecular_target": "T1, 5HT2B expressing cells (Homo sapiens, UniProt P41595)", "T1 construct": "expressed in transfected cells", "assay": "Flow cytometry selectivity versus 5HT2B", "type": "binding", "procedure": "(§1) To further assess TRex CHO parental cells, TRex CHO A56 overexpressed CB1, Native human CB1 TRex CHO A156, 5HT2B, Mouse CB1 and human CB2 were used to examine the specificity of IgG binding. 100 μl of 1×10^6 cells/ml of cells were incubated with primary antibody IgGs in 3-fold serial dilutions starting from 1 μM to 0.5 nM for 30 minutes on ice. After being washed with 200 μl of FACS buffer twice, cells were incubated with secondary antibody for 30 minutes on ice. Cells were washed with 200 μl of FACS buffer twice and transferred to BD Falcon 5 ml tube and analyzed by FACS.\nSanta Cruz anti-CB1 rabbit polyclonal antibody and secondary antibody FITC conjugated anti-rabbit were used to detect the expression of mouse CB1. R&D mouse monoclonal anti-CB2 and human IgG P2C2 were used to confirm the expression of CB2 and 5HT2B respectively. Both anti-mouse and anti-human secondary antibodies were PE-conjugated.\nFor selected binders, full binding curves were generated on CB1 receptor by testing a range of concentrations. Three-fold serial dilutions from 1 μM to […] were prepared. Selectivity was determined by measuring binding to cells expressing 5HT2B or CB2, relative to binding to A156 (native human CB1 receptor expressing) or A56 (overexpressed—CB1 receptor with the T210A modification and ICL3 replacement with fusion partner) by flow cytometry. As shown in FIG. 2C and FIG. 2D, the expression of CB2 and 5HT2B was confirmed using mouse monoclonal anti-CB2 and P2C2 human IgG to confirm CB2 and 5HT2B expression, respectively. PE-conjugated anti-mouse (for detection of anti-CB2) and PE conjugated anti-human antibodies were used to detect CB2 and 5HT2B, respectively."}, "[2]": {"molecular_target": "T2, human CB1 expressing TRex-CHO cells (Homo sapiens, UniProt P21554)", "T2 construct": "pcDNA4/TO native full length human CB1 receptor construct was transfected into tetracycline inducible system Trex-CHO and Trex-293 cells; expressed in transfected cells", "type": "cell-based", "conditions": "forskolin stimulated TRex-CHO CB1 cells", "experimental": "Data analysis was performed using GraphPad Prism software.\nData analysis was performed using GraphPad Prism."}, "[3]": {"molecular_target": "A138 iCAPS (human CB1, ICL3 replaced with protein 1 sequence)", "assay": "ELISA binding of IgG/Fab to CB1 iCAPS A138", "conditions": "IgG and Fab ELISA, Table 8", "procedure": "(§2) Purified IgG was tested for binding to purified CB1 receptor (CB1 Conformation Antigen Presenting System (iCAPS)) by ELISA. Non-biotinylated antigens (e.g. empty iCAPS) were coated directly on Maxisorp plates. The primary antibodies were purified IgGs with 1:3 serial dilutions, incubated on the plate for 1 hour. After 3 rounds of washing with PBST, secondary antibodies HRP goat anti-mouse IgG (Abmart) or HRP goat anti-human IgG (Sigma), depending on the species of the IgGs were added and incubated for another hour. The plates were washed three times with PBST, then developed with TMB (Biopanda). HCl was added to the plates to stop the reaction. Absorbance at 450 nm was read on Emax precision microplate reader (Molecular Devices).\n(§3) IgG and Fab molecules tested were 36E12B6C2 IgG, 36E12B6C2 Fab, PA13R3-P1C4 IgG, and PA13R3-P1C4 Fab, compared to negative control BRIL binder P1F7 IgG and P1F7 Fab. For IgG antibodies, the secondary antibody used to detect binding was anti-mouse IgG-HRP; for Fabs, the secondary antibody used to detect binding was anti-human IgG-HRP."}, "[4]": {"tested_on": "TRex CHO A56 over-expressed CB1 (CB1 T210A/fusion partner)", "assay": "Flow cytometry (FACS) binding to over-expressed CB1 cells", "design": "species or system human", "procedure": "(§4) TRex CHO parental cells, TRex CHO A56 over-expressed CB1 (CB1 T210A/fusion partner), and Native human CB1 TRex CHO A156 were harvested from flasks. 100 μl of 1×10^6 cells/ml of cells were incubated with primary antibody IgGs. Secondary Antibody PE conjugated anti-human and anti-mouse was diluted in 1:200 folds. Anti-Human Fab FITC was diluted in 1:32 folds. Cells were washed with 200 μl of FACS buffer twice and transferred to BD 5 ml Falcon tube and analyzed by flow cytometry. Binding of purified IgG was initially tested at concentrations of 30 nM and 300 nM.\nas §1\nFor selected binders, full binding curves were generated on CB1 receptor by testing a range of concentrations. Three-fold serial dilutions from 1 μM to […] were prepared. Selectivity was determined by measuring binding to cells expressing 5HT2B or CB2, relative to binding to A156 (native human CB1 receptor expressing) or A56 (overexpressed—CB1 receptor with the T210A modification and ICL3 replacement with fusion partner) by flow cytometry. […]\nThe binding affinity, cross-reactivity and specificity of humanized P1C4 antibodies were determined by flow cytometry with TRex CHO parental cells, TRex CHO A56 overexpressed CB1 cells (T210A/fusion partner), native human CB1 TRex CHO A156 cells, Trex parental (no CB1) cells, mouse CB1 cells, and human CB2 stable cells. […] Cells were washed with 200 μl of FACS buffer twice and transferred to BD Falcon 5 ml tube and analyzed by flow cytometry (BD FACScalibur)."}, "[5]": {"molecular_target": "A139 iCAPS (human CB1, ICL3 replaced with BRIL)", "assay": "ELISA binding of IgG/Fab to CB1 iCAPS A139", "conditions": "IgG and Fab ELISA, Table 8", "procedure": "as §2, §3"}, "[6]": {"tested_on": "TRex CHO parental cells (no CB1)", "assay": "Flow cytometry (FACS) binding to parental cells", "procedure": "as §4, §1\nThe binding affinity, cross-reactivity and specificity of humanized P1C4 antibodies were determined by flow cytometry with TRex CHO parental cells, TRex CHO A56 overexpressed CB1 cells (T210A/fusion partner), native human CB1 TRex CHO A156 cells, Trex parental (no CB1) cells, mouse CB1 cells, and human CB2 stable cells. […] After being washed with 200 μl of FACS buffer twice, cells were incubated with PE conjugated anti-human secondary antibody (Southern Biotech) for 30 minutes on ice. Cells were washed with 200 μl of FACS buffer twice and transferred to BD Falcon 5 ml tube and analyzed by flow cytometry (BD FACScalibur).\nThe binding affinity of PA13R3-P1C4 humanized variants was determined by flow cytometry using TRex CHO cells stably transfected with the CB1. TRex CHO parental cells, and TRex-CHO cells stably transfected with tetracycline inducible human CB1, human CB2 or mouse CB1 expression constructs were harvested. To determine binding of test antibodies, one hundred microliters of 1×10^6 cells/mL of cells were incubated with test antibodies with a range of concentrations between 1 μM and 1.3 nM for 30 minutes on ice. Cells were then centrifuged at 4° C. at 1600 rpm for 3 minutes; supernatant was aspirated and cells were washed with 200 μL FACS buffer. The washing procedure was repeated twice. […] Cells were washed with 200 μL FACS buffer twice and analyzed by flow cytometry (Guava). […] The mean dissociation constant (KD) of PA13R3-P1C4 humanized variants was determined by averaging at least 4 different experiments using at least 2 different batches of protein (FIG. 20A-D and Table 16)."}},
  "data": [
    {"molecule": "PA13R3-P1C4: phage-derived chimeric anti-CB1 IgG; HC variable SEQ ID NO: 2, LC variable SEQ ID NO: 6 (antibody, V domains shown, PA13R3-P1C4 Heavy chain variable region; PA13R3-P1C4 Light chain variable region) VH: EVQLQQSGAELVRPGVSVKISCKASGYEFSYYWMNWVKQRPGQGLEWIGQIYPGDGETKYNGKFKGKATLTADKSSNTAYMQLSSLTSEDSAVYFCARSHGNYLPYWGQGTLVTVSA VL: DIVLTQSPAIMSASLGERVTMTCTASSSVSSSYLHWYQQKPGSSPKLWIYSTSNLASGVPARFSGSGSGTSYSLTISSMEAEDAATYYCHQYHRSPPTFGAGTKLELK", "values": [
      {"measurement": "cross-activity with 5ht2b", "setting": "[1]", "value": "do not have cross-activity"},
      {"measurement": "effect on cAMP levels without exogenous agonist / mechanism", "setting": "[2]", "value": "inverse agonists"},
      {"measurement": "EC50", "setting": "[3]", "value": 0.17, "unit": "nM"},
      {"measurement": "binding to A56 (in words)", "setting": "[4]", "value": "bind to both A56 and A156"},
      {"measurement": "EC50", "setting": "[5]", "value": 0.17, "unit": "nM"},
      {"measurement": "binding to parental TRex CHO (in words)", "setting": "[6]", "value": "not parental TRex CHO"},
      {"measurement": "Kd TRexCHO parental", "setting": "[6]; Table 10", "value": "No binding"}
    ]},
    {"molecule": "PA13R3-P1C4 Fab: Fab fragment of chimeric PA13R3-P1C4 (antibody, V domains shown) VH: EVQLQQSGAELVRPGVSVKISCKASGYEFSYYWMNWVKQRPGQGLEWIGQIYPGDGETKYNGKFKGKATLTADKSSNTAYMQLSSLTSEDSAVYFCARSHGNYLPYWGQGTLVTVSA VL: DIVLTQSPAIMSASLGERVTMTCTASSSVSSSYLHWYQQKPGSSPKLWIYSTSNLASGVPARFSGSGSGTSYSLTISSMEAEDAATYYCHQYHRSPPTFGAGTKLELK", "values": [
      {"measurement": "cross-activity with 5ht2b", "setting": "[1]", "value": "do not have cross-activity"},
      {"measurement": "EC50", "setting": "[3]", "value": 0.23, "unit": "nM"},
      {"measurement": "binding to A56 (in words)", "setting": "[4]", "value": "bind to both A56 and A156"},
      {"measurement": "EC50", "setting": "[5]", "value": 0.27, "unit": "nM"},
      {"measurement": "binding to parental TRex CHO (in words)", "setting": "[6]", "value": "not parental TRex CHO"}
    ]},
    {"molecule": "36E12B6C2: hybridoma-derived anti-CB1 mAb; HC variable SEQ ID NO: 18, LC variable SEQ ID NO: 22 (antibody, listed as Mus sp., V domains shown) VH: QVQLQQSGAELVRPGSSVKISCKASGYEFSYYWMNWVKQRPGQGLQWIGQIYPGDGDTNYNGKFKGKATLTADKSSSTAYMHLTSLTSEDSAVYFCARSGGNPFAFWGQGTLVTVSA VL: DIQMTQTSSSLSASLGDRVTFSCRASQDISNYLNWYQQKPDGTVKLLIYYTSRLHSGVTSRFRGSGSGTDYSLTISNLEQEDVATYFCQQGHTLPWSFGGGTKLEIK", "values": [
      {"measurement": "cross-activity with 5ht2b", "setting": "[1]", "value": "do not have cross-activity"},
      {"measurement": "effect on cAMP levels without exogenous agonist / mechanism", "setting": "[2]", "value": "inverse agonists"},
      {"measurement": "EC50", "setting": "[3]", "value": 0.201, "unit": "nM"},
      {"measurement": "binding to A56 (in words)", "setting": "[4]", "value": "bind to both A56 and A156"},
      {"measurement": "EC50", "setting": "[5]", "value": 0.19, "unit": "nM"},
      {"measurement": "binding to parental TRex CHO (in words)", "setting": "[6]", "value": "not parental TRex CHO"}
    ]}
  ]
}
